Measurements taken from patent publication US11339434B2, “Methods for determining gene functions” (The Regents of the University of California, priority 2016, dated 2022).

Experiment: methylation of 6-mercaptopurine by peptide barcoded TPMT, LC-ESI-MS
Format: biochemical
Settings: 1 mM 6-mercaptopurine, 37° C., approximately 24 hours
Description: A polynucleotide encoding a peptide barcoded human thiopurine methyl transferase (TPMT) was incubated for 3 hours at 37° C. in the PURExpress® cell-free transcription/translation system (New England Biolabs, Inc. (Ipswich, Mass.)) according to the manufacturer's protocol in the presence (+protease) or the absence (−protease) of the WELQut-protease. […] After cell-free transcription/translation of peptide barcoded thiopurine methyl transferase (TPMT), 1 mM 6-mercaptopurine and phosphate buffered saline (0.1×) were added with (+cofactor) or without (−cofactor) 3.2 mM of the cofactor S-adenosyl-methionine (SAM). After incubation at 37° C., […] for approximately 24 hours (no shaking), methylation of 6-mercaptopurine and the presence of peptide barcode were determined by liquid chromatography-electrospray ionization-mass spectrometry (LC-ESI-MS).

B1: TPMT: peptide barcoded human thiopurine methyl transferase produced by cell-free transcription/translation (protein, UniProt P51580 1-245, looked up)
Thiopurine S-methyltransferase: MDGTRTSLDIEEYSDTEVQKNQVLTLEEWQDKWVNGKTAFHQEQGHQLLKKHLDTFLKGKSGLRVFFPLCGKAVEMKWFADRGHSVVGVEISELGIQEFFTEQNLSYSEEPITEIPGTKVFKSSSGNISLYCCSIFDLPRTNIGKFDMIWDRGALVAINPGDRKCYADTMFSLLGKKFQYLLCVLSYDPTKHPGPPFYVPHAEIERLFGKICNIRCLEKVDAFEERHKSWGIDCLFEKLYLLTEK
modifications: peptide barcode
notes: peptide barcoded human thiopurine methyl transferase produced by cell-free transcription/translation
For B1, the “methylated 6-mercaptopurine detected by mass spectrometry” value (“methylated 6-mercaptopurine detected” below) (absence of cofactor S-adenosyl-methionine, absence of WELQut-protease) was “no methylated 6-mercaptopurine nor peptide barcode were detected”, the “methylated 6-mercaptopurine detected” value (absence of cofactor S-adenosyl-methionine, presence of WELQut-protease) was “no methylated 6-mercaptopurine was detected” and the “methylated 6-mercaptopurine detected” value (presence of cofactor S-adenosyl-methionine (3.2 mM) and WELQut-protease) was “methylated 6-mercaptopurine and the peptide barcode were detected”. For the same molecule, the “methylated 6-mercaptopurine detected” value (presence of cofactor S-adenosyl-methionine (3.2 mM), absence of WELQut-protease) was “methylated 6-mercaptopurine was detected”.
